Experiment [1] addresses T1, human IL-6 receptor (hIL-6R) (Homo sapiens, UniProt P08887).
T1 sequence (P08887 20-357): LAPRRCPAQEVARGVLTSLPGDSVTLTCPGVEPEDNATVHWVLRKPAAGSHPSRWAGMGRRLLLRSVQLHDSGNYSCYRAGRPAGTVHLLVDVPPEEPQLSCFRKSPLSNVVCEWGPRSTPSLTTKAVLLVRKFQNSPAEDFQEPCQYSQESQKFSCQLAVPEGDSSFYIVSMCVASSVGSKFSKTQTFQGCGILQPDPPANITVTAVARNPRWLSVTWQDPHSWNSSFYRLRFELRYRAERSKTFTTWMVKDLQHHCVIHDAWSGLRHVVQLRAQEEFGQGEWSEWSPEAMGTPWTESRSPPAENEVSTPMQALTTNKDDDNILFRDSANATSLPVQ
Description: IgG ELISA for hIL-6R binding in the presence of amino acids and amino acid metabolites (Table 14). To be noted: IgG 2.5 μg/mL. The method, then:
Meanwhile, each of the amino acids and metabolites thereof were appropriately prepared at the concentrations shown in Table 14 using the buffers shown in Table 13. The antigen used was biotin-labeled hIL-6R.
First, a StreptaWell 96 microtiter plate (Roche) was coated with 100 μL of PBS containing biotin-labeled antigens at room temperature for one hour or longer. […] 100 μL of each of the purified IgGs prepared at 2.5 μg/mL using Sample Buffer containing small molecules at the final concentrations shown in Table 14 were added to each well, and the plate was let still at room temperature for one hour to allow each IgG to bind to the antigen present in each well. After washing with Wash Buffer containing amino acids and amino acid metabolites at the final concentrations shown in Table 14, HRP-conjugated anti-human IgG antibody (BIOSOURCE) diluted with Sample Buffer containing amino acids and amino acid metabolites was added to each well, and the plate was incubated for one hour. After washing with Wash Buffer containing the respective amino acids and amino acid metabolites, the chromogenic reaction of TMB single solution (ZYMED) added in each well was terminated by adding sulfuric acid. Then, the color development was measured by absorbance at 450 nm.
For orientation: An ELISA detects its analyte on a solid surface through an enzyme-linked reagent.

Experiment [2] deals with T1, human IL-6 receptor (hIL-6R). As to the kind of experiment: SPR dissociation of antibody from immobilized hIL-6R with or without kynurenine. In kind it is binding. Particulars: bound in 100 μmol/L kynurenine, then buffer without kynurenine. The method, then:
The running buffers used were 20 mmol/L ACES, 150 mmol/L NaCl, 0.05% (w/v) Tween 20, pH 7.4, and 20 mmol/L ACES, 150 mmol/L NaCl, 0.05% (w/v) Tween 20, pH 7.4, 100 μmol/L kynurenine. The measurements were performed at 25° C. As an analyte, 5 μg/mL 6RNMSC1-2_F02 diluted with 20 mmol/L ACES, 150 mmol/L NaCl, 0.05% (w/v) Tween 20, pH 7.4, containing 100 μmol/L kynurenine was allowed to interact for 180 seconds with hIL-6R immobilized onto Sensor chip CM5 by amine coupling. Then, the mode of the dissociation of hIL-6R was observed under each running buffer condition. […] Specifically, the regulation by kynurenine on binding of the antibody to hIL-6R was confirmed to be reversible.

Experiment [3] has the same target. As to the kind of experiment: SPR effect of kynurenine concentration on binding to immobilized hIL-6R. Particulars: 1 μg/mL antibody, 180 seconds. The protocol: Next, the effect of kynurenine concentration on antigen-antibody reaction between 6RNMSC1-2_F02 and hIL-6R was assessed using Biacore T200 (GE Healthcare). The running buffer used was 20 mmol/L ACES, 150 mmol/L NaCl, 0.05% (w/v) Tween 20, pH 7.4. Antigen-antibody reaction between 6RNMSC1-2_F02 and human IL-6R was assayed at 25° C. hIL-6R was immobilized onto Sensor chip CM5 by amine coupling. As an analyte, 1 μg/mL 6RNMSC1-2_F02 diluted with 20 mmol/L ACES, 150 mmol/L NaCl, 0.05% (w/v) Tween 20, pH 7.4, containing kynurenine adjusted to various concentrations were allowed to interact for 180 seconds and changes in the amount of binding were observed.

Experiment [4] in a line: SPR (Biacore T200) binding of 6RNMSC1-2_F02 and variants to kynurenine. The protocol:
(§1) An appropriate amount of protein A (Invitrogen) was immobilized onto Sensor chip CM4 (GE Healthcare) by the amine coupling method. The antibody of interest was captured thereon, and the antigen kynurenine and derivatives thereof were allowed to interact. The running buffer used was 50 mmol/L Tris-HCl, 150 mmol/L NaCl, 0.02% (w/v) Tween 20, 5% DMSO, pH 7.6. All measurements were carried out at 15° C. The antigens were diluted with the running buffer.
(§2) Then, the running buffer was run at a flow rate of 30 μL/min for 60 seconds to observe the dissociation of antigens from the antibody. Kinetic parameters, the association rate constant ka (1/Ms) and the dissociation rate constant kd (l/s), were calculated based on the sensorgrams obtained by the measurements. The dissociation constant KD (M) was calculated from these constants. Each parameter was calculated using Biacore T200 Evaluation Software (GE Healthcare).
(§3) Meanwhile, the type of sensor chip immobilized with Protein A was changed to Sensor chip Series S CM3 (GE Healthcare) to measure some of the variants. When kynurenine dissociation was too fast to determine the dissociation rate constant, a dissociation constant KD (M) was calculated by analysis of equilibrium values based on the degree of binding response during the interaction with each antigen (association phase). In this case also, Biacore T200 Evaluation Software (GE Healthcare) was used to calculate the parameters.
as §3
When kynurenine dissociation was too fast to determine the dissociation rate constant, the dissociation constant KD (M) was calculated by analysis of equilibrium values based on the degree of binding response when it is interacted with each antigen (association phase). Also in this case, the Biacore T200 Evaluation Software (GE Healthcare) was used to calculate parameters. […] Each variant and its parental antibody F02h011/F021003 were compared in terms of the KD value for kynurenine.
When kynurenine dissociation was too fast to determine the dissociation rate constant, the dissociation constant KD (M) was calculated by analyzing equilibrium values based on the degree of binding response when it is interacted with each antigen (association phase). Also in this case, the Biacore T200 Evaluation Software (GE Healthcare) was used to calculate parameters. […] Each variant and its parental sequence F02h011/F021003 were compared in terms of the KD value for kynurenine.

The format of experiment [5] is binding. Particulars: Biacore T200, 15° C. The protocol: Kynurenine-dependent antibody 6RNMSC1-2_F02 obtained from the library was assessed for its binding to kynurenine and derivatives thereof using Biacore T200 (GE Healthcare). The following […] molecules were assessed as derivatives: the kynurenine isomer D-kynurenine and the derivatives 3-hydroxy-DL-kynurenine, 4-(4-methylphenyl)-4-oxobutyric acid, R00447436-000-001, RO0635389-000-001, R00438566-001-001, and RO0635390-000-001. The chemical structure of each compound is shown below.
as §1, §2
In general terms: SPR reads the build-up and loss of mass on a sensor chip optically.

B1: 6RNMSC1-2_F02: antibody binding hIL-6R in the presence of kynurenine; heavy chain SEQ ID NO: 32, light chain SEQ ID NO: 33 (antibody, listed as Homo sapiens, V domains shown)
VH: QVQLVQSGAEVKKPGSSVKVSCKASGGTFSSYAISWVRQAPGQGLEWMGGIIPIFGTANYAQKFQGRVTITADESTSTAYMELSSLRSEDTAVYYCARDAPVVARPRGAFDIWGQGTMVTVSS
VL: DIVMTQTPLSSPVTLGQPASISCRSSQSLVHSDGNTYLSWLQQRPGQPPRLLIHEISNRFSGVPDRFSGSGAGTNFTLKISRVEAEDVGVYYCMQATQFPRTFGQGTKVEIK
Turning to B1, in experiment [1] (3-Hydroxykynurenine 1 mM), the “absorbance under condition 5 (3-hydroxy kynurenine solution)” value is “high absorbance similarly to that under condition 1”. Also, the “absorbance under condition 7 (no small molecule) compared to condition 1 (kynurenine solution)” value in experiment [1] is listed as “significantly lower”. In addition, in experiment [1] (Tryptophan 1 mM), the “hIL-6R binding in the presence of tryptophan” value is “does not bind to the antigen hIL-6R”. For the same molecule, the “dissociation from hIL-6R when kynurenine is no more present” value in experiment [2] is listed as “rapidly dissociating hIL-6R”. Also, the “effect of kynurenine concentration on the amount of binding to hIL-6R” value in experiment [3] is on record as “the higher the concentration of kynurenine acting as a switch, the greater the amount of 6RNMSC1-2_F02 binding to hIL-6R”. For the same molecule, in experiment [4] (Biacore), the “kynurenine binding (in words)” value was “confirmed once again to bind to kynurenine”. In experiment [4] (Biacore T200, 15° C., 5% DMSO), this molecule displayed a Kd of 239 µM, a ka for kynurenine of 709 M⁻¹ s⁻¹ and a kd for kynurenine of 0.17 L/s. Further, in experiment [5], the “binding to 3-hydroxy-DL-kynurenine” value is reported as “bind”, the “binding to RO0635389-000-001” value is recorded as “bind” and the “binding to RO0635390-000-001” value is on record as “bind”.

A word on the Kd: it is the concentration at which binding is half-saturated.

The values above are taken from patent US20210180049A1 (CHUGAI SEIYAKU KABUSHIKI KAISHA, priority 2013, published 2021).
